Test system: Escherichia coli TOP10
Assay: shrunken log2 fold change of peptide-encoding DNA abundance (4.5 h post-induction vs induction); higher = less antimicrobial activity (less host growth inhibition)
Conditions: time post-induction: 4.5 h; library: site-saturation at positions 5, 18, 19, 20
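Also: peptides expressed intracellularly from a pBAD plasmid library in pooled LB shake-flask culture, induced with 0.3% L-arabinose, DNA abundance read by NGS, three biological replicates, DESeq2 with apeglm shrinkage.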

Row | Sequence | shrunken log2 fold change
1 | RRIRPRPPRLPRPRPRPMCWPRP | 0.156
2 | RRIRPRPPRLPRPRPRPMERPRP | -0.0425
3 | RRIRPRPPRLPRPRPRPMETPRP | -0.00904
4 | RRIRPRPPRLPRPRPRPMFEPRP | 0.0626
5 | RRIRPRPPRLPRPRPRPMFLPRP | -0.269
6 | RRIRPRPPRLPRPRPRPMFPPRP | 0.0316
7 | RRIRPRPPRLPRPRPRPMFVPRP | -0.254
8 | RRIRPRPPRLPRPRPRPMHMPRP | 0.0173
9 | RRIRPRPPRLPRPRPRPMHYPRP | -0.336
10 | RRIRPRPPRLPRPRPRPMIIPRP | -0.152
11 | RRIRPRPPRLPRPRPRPMKPPRP | 0.00333
12 | RRIRPRPPRLPRPRPRPMLAPRP | 0.281
13 | RRIRPRPPRLPRPRPRPMLEPRP | 0.0664
14 | RRIRPRPPRLPRPRPRPMLFPRP | -0.0744
15 | RRIRPRPPRLPRPRPRPMLRPRP | 0.34
16 | RRIRPRPPRLPRPRPRPMNHPRP | -0.11
17 | RRIRPRPPRLPRPRPRPMNNPRP | -0.916
18 | RRIRPRPPRLPRPRPRPMRAPRP | 0.788
19 | RRIRPRPPRLPRPRPRPMRTPRP | 0.357
20 | RRIRPRPPRLPRPRPRPMVVPRP | -0.153
21 | RRIRPRPPRLPRPRPRPMWAPRP | -0.201
22 | RRIRPRPPRLPRPRPRPMWRPRP | -0.0622

Row | Sequence | shrunken log2 fold change
23 | RRIRPRPPRLPRPRPRPNAHPRP | 0.247
24 | RRIRPRPPRLPRPRPRPNAMPRP | -0.324
25 | RRIRPRPPRLPRPRPRPNCDPRP | -0.257
26 | RRIRPRPPRLPRPRPRPNCRPRP | -0.000174
27 | RRIRPRPPRLPRPRPRPNDWPRP | 0.0287
28 | RRIRPRPPRLPRPRPRPNEGPRP | 0.0293
29 | RRIRPRPPRLPRPRPRPNENPRP | -0.348
30 | RRIRPRPPRLPRPRPRPNFAPRP | 0.445
31 | RRIRPRPPRLPRPRPRPNFKPRP | -0.225
32 | RRIRPRPPRLPRPRPRPNFRPRP | 0.156
33 | RRIRPRPPRLPRPRPRPNGFPRP | -0.216
34 | RRIRPRPPRLPRPRPRPNHCPRP | -1.08
35 | RRIRPRPPRLPRPRPRPNIAPRP | 0.225
36 | RRIRPRPPRLPRPRPRPNICPRP | -0.799
37 | RRIRPRPPRLPRPRPRPNNNPRP | -0.659
38 | RRIRPRPPRLPRPRPRPNNRPRP | -0.349
39 | RRIRPRPPRLPRPRPRPNPMPRP | -0.211
40 | RRIRPRPPRLPRPRPRPNPRPRP | 0.596
41 | RRIRPRPPRLPRPRPRPNQMPRP | -0.129
42 | RRIRPRPPRLPRPRPRPNRCPRP | 0.0358
43 | RRIRPRPPRLPRPRPRPNRDPRP | -0.271
44 | RRIRPRPPRLPRPRPRPNRMPRP | -0.138

Row | Sequence | shrunken log2 fold change
45 | RRIRPRPPRLPRPRPRPNSLPRP | -0.272
46 | RRIRPRPPRLPRPRPRPNTWPRP | 0.272
47 | RRIRPRPPRLPRPRPRPNWIPRP | -0.441
48 | RRIRPRPPRLPRPRPRPNWWPRP | 0.717
49 | RRIRPRPPRLPRPRPRPNYCPRP | -0.239
50 | RRIRPRPPRLPRPRPRPNYTPRP | -0.679
51 | RRIRPRPPRLPRPRPRPPAGPRP | 0.506
52 | RRIRPRPPRLPRPRPRPPCDPRP | 0.182
53 | RRIRPRPPRLPRPRPRPPCHPRP | 0.0684
54 | RRIRPRPPRLPRPRPRPPCNPRP | -0.0234
55 | RRIRPRPPRLPRPRPRPPGWPRP | 0.484
56 | RRIRPRPPRLPRPRPRPPHNPRP | 0.242
57 | RRIRPRPPRLPRPRPRPPIYPRP | 0.0772
58 | RRIRPRPPRLPRPRPRPPKCPRP | -0.028
59 | RRIRPRPPRLPRPRPRPPKLPRP | 0.172
60 | RRIRPRPPRLPRPRPRPPKMPRP | 0.401
61 | RRIRPRPPRLPRPRPRPPLGPRP | 0.585
62 | RRIRPRPPRLPRPRPRPPMTPRP | 0.0831
63 | RRIRPRPPRLPRPRPRPPMYPRP | -0.368
64 | RRIRPRPPRLPRPRPRPPNQPRP | 0.282
65 | RRIRPRPPRLPRPRPRPPNSPRP | -0.0717
66 | RRIRPRPPRLPRPRPRPPNTPRP | 0.179

Row | Sequence | shrunken log2 fold change
67 | RRIRPRPPRLPRPRPRPPPNPRP | 0.743
68 | RRIRPRPPRLPRPRPRPPPRPRP | 0.91
69 | RRIRPRPPRLPRPRPRPPQDPRP | 0.523
70 | RRIRPRPPRLPRPRPRPPSHPRP | 0.0789
71 | RRIRPRPPRLPRPRPRPPSQPRP | 0.334
72 | RRIRPRPPRLPRPRPRPPSVPRP | 0.321
73 | RRIRPRPPRLPRPRPRPPWIPRP | -0.0483
74 | RRIRPRPPRLPRPRPRPPWKPRP | 0.416
75 | RRIRPRPPRLPRPRPRPPYQPRP | 0.249
76 | RRIRPRPPRLPRPRPRPPYVPRP | -0.0964
77 | RRIRPRPPRLPRPRPRPQALPRP | 0.339
78 | RRIRPRPPRLPRPRPRPQCGPRP | -0.0915
79 | RRIRPRPPRLPRPRPRPQDRPRP | -0.0277
80 | RRIRPRPPRLPRPRPRPQFDPRP | -0.0475
81 | RRIRPRPPRLPRPRPRPQFNPRP | -0.5
82 | RRIRPRPPRLPRPRPRPQKCPRP | -0.0778
83 | RRIRPRPPRLPRPRPRPQKNPRP | -0.169
84 | RRIRPRPPRLPRPRPRPQKTPRP | -0.0227
85 | RRIRPRPPRLPRPRPRPQKVPRP | 0.0449
86 | RRIRPRPPRLPRPRPRPQLKPRP | 0.202
87 | RRIRPRPPRLPRPRPRPQLWPRP | 0.221
88 | RRIRPRPPRLPRPRPRPQMMPRP | -0.41

Row | Sequence | shrunken log2 fold change
89 | RRIRPRPPRLPRPRPRPQNCPRP | -0.621
90 | RRIRPRPPRLPRPRPRPQQKPRP | 0.433
91 | RRIRPRPPRLPRPRPRPQTCPRP | 0.111
92 | RRIRPRPPRLPRPRPRPQTIPRP | -0.0413
93 | RRIRPRPPRLPRPRPRPQTWPRP | -0.254
94 | RRIRPRPPRLPRPRPRPQVGPRP | 0.0207
95 | RRIRPRPPRLPRPRPRPQWHPRP | -0.176
96 | RRIRPRPPRLPRPRPRPQYNPRP | -0.742
97 | RRIRPRPPRLPRPRPRPRAQPRP | 0.33
98 | RRIRPRPPRLPRPRPRPRDLPRP | 0.172
99 | RRIRPRPPRLPRPRPRPREEPRP | 0.111
100 | RRIRPRPPRLPRPRPRPRELPRP | 0.39
101 | RRIRPRPPRLPRPRPRPRFDPRP | 0.197
102 | RRIRPRPPRLPRPRPRPRFVPRP | 0.109
103 | RRIRPRPPRLPRPRPRPRGFPRP | 0.341
104 | RRIRPRPPRLPRPRPRPRGIPRP | -0.176
105 | RRIRPRPPRLPRPRPRPRHWPRP | 0.423
106 | RRIRPRPPRLPRPRPRPRIDPRP | -0.0848
107 | RRIRPRPPRLPRPRPRPRIGPRP | 0.0981
108 | RRIRPRPPRLPRPRPRPRIKPRP | -0.138
109 | RRIRPRPPRLPRPRPRPRKPPRP | -0.0217
